Measurements: patent US20200206198A1, “CFTR CHANNEL ACTIVATOR FOR USE IN THE TREATMENT AND/OR PREVENTION OF GLUTEN SENSITIVITY CONDITIONS” (priority 2017, published 2020)

Biological target: T1, PM-associated CFTR (Homo sapiens, UniProt P13569)
T1 construct: Immunoprecipitations of endogenous proteins were performed on 500 μg of lysates from Caco-2 cells; host or cells: Caco-2, T84
Test: CFTR plasma membrane disposal in Caco-2 cells (membrane fractions)
Type: cell-based
Description: Human colon adenocarcinoma-derived Caco-2 and T84 cells were obtained from the ATCC. Cells were maintained in T25 flask in Modified Eagle Medium (MEM) for Caco-2, or Ham's F12+DMEM (1:1) for T84, supplemented with 10% fetal bovine serum (FBS), 2 mM Glutamine+1% Non Essential Amino Acids (NEAA) and the antibiotics penicillin\streptomycin (100 units/ml) (all reagents from Lonza) (Luciani, A., et al. 2010. Cells were grown in Transwells (Corning, 3470 or 3460) under the normal condition (Luciani, A., et al. 2012). Briefly, 8×10^4 or 5×10^5 cells were seeded in 6.5-mm diameter or 12-mm diameter, respectively, and grown until the RT reached 800 to 1,200 Ω·cm2. Transwells with a pore size of 0.4 μm were used. Medium in both the apical and basolateral chambers was changed every other day. Cells were treated with 20 μg/ml of either α-gliadin peptide P31-43 or […] or scrambled PGAV or modified P31-43 either biotin-tagged or not, for different time point (from 1 h short challenge up to 24 h). Cells were also treated with 50 or 100 μg/ml of P57-68 or PGAV peptides for 3 h. Caco-2 or T84 cells were also treated with: CFTR potentiators VX-770 (10 μM) or VX-532 (20 μM) (Selleck chemicals) or Genistein (10 μM) (Sigma-Aldrich) or in presence or absence of CFTR inhibitor172 (CFTRinh172, 20 μM) or 3-methyl-adenine (3-MA, 20 μM) (Calbiochem), Z-DON (20 nM, Zedira) or BAPTA-AM (10 μM, Calbiochem).
The whole lysate or membrane fraction proteins of cell lines and mice intestine homogenates were obtained from treated and untreated cells or mice as described. The equal amount of protein were resolved by SDS-PAGE gel and blotted with antibodies against: SQSTM1, (Sigma Aldrich, 108k4767) 1:1000, PPARγ (Santa Cruz Biotechnology, sc7273) 1:500, BECN1 (Abcam, ab58878) 1:1000, CFTR clone M3A7 (Abcam, ab4067) 1:500, phospho-ERK1/2 (php42/44, Cell Signaling Technology, #91101) 1:1000, UVRAG (Santa Cruz Biotechnology sc8215) 1:1000, NHERF-1 (BD, 611161) 1:1000, EZRIN (BD, 610603) 1:1000, hVps34 (SigmaV9764) 1:300, biotin (Abcam, ab1227) 1:2000, PKAr2a (BD, 610625) 1:500, Ubiquitin (Cell Signaling clone P4D1, #3936) 1:1000, CHIP (Calbiochem PC711) 1:500, Caspase-1 p10 (M-20) (Santa Cruz Biotechnology, sc-514) 1:200, NLRP3 (Abcam, ab4207), 1:500, IDO1 (monoclonal; cv152) 1:1000^[80], used as primary antibodies. Normalization was performed by probing the membrane with anti-β-actin (Cell Signaling, #4970) 1:1000, anti-Gapdh (Sigma-Aldrich, G8795) 1:1000 and anti-flottilin (Abcam ab15148) 1:1000 antibodies. Immunoprecipitations of endogenous proteins were performed on 500 μg of lysates from Caco-2 cells. The proteins were incubated for 12-18 h at 4° C. with 10 ug\ml of specific antibody followed by the addition of Protein A/G-agarose beads for 4 h at 4° C. The beads were then washed three times with lysis buffer and Laemmli's sample buffer was added to the samples. The membranes were then blotted with: CFTR clone CF3 (Abcam, ab2784) 1:1000, TG2 (clone CUB7402; NeoMarkers) 1:1000, CHIP (Calbiochem PC711) 1:500, Ubiquitin (Cell Signaling clone P4D1 3936), isopeptide (Abcam 422) 1:1000, PKAR2 (BD 610625) 1:500.
Protein from membrane fractionation were obtained as described. Cells were homogenized with a PotterElvehjem pestle and centrifuged at 2300×g for 15 min at 4° C. […]

T1 sequence (P13569 whole entry): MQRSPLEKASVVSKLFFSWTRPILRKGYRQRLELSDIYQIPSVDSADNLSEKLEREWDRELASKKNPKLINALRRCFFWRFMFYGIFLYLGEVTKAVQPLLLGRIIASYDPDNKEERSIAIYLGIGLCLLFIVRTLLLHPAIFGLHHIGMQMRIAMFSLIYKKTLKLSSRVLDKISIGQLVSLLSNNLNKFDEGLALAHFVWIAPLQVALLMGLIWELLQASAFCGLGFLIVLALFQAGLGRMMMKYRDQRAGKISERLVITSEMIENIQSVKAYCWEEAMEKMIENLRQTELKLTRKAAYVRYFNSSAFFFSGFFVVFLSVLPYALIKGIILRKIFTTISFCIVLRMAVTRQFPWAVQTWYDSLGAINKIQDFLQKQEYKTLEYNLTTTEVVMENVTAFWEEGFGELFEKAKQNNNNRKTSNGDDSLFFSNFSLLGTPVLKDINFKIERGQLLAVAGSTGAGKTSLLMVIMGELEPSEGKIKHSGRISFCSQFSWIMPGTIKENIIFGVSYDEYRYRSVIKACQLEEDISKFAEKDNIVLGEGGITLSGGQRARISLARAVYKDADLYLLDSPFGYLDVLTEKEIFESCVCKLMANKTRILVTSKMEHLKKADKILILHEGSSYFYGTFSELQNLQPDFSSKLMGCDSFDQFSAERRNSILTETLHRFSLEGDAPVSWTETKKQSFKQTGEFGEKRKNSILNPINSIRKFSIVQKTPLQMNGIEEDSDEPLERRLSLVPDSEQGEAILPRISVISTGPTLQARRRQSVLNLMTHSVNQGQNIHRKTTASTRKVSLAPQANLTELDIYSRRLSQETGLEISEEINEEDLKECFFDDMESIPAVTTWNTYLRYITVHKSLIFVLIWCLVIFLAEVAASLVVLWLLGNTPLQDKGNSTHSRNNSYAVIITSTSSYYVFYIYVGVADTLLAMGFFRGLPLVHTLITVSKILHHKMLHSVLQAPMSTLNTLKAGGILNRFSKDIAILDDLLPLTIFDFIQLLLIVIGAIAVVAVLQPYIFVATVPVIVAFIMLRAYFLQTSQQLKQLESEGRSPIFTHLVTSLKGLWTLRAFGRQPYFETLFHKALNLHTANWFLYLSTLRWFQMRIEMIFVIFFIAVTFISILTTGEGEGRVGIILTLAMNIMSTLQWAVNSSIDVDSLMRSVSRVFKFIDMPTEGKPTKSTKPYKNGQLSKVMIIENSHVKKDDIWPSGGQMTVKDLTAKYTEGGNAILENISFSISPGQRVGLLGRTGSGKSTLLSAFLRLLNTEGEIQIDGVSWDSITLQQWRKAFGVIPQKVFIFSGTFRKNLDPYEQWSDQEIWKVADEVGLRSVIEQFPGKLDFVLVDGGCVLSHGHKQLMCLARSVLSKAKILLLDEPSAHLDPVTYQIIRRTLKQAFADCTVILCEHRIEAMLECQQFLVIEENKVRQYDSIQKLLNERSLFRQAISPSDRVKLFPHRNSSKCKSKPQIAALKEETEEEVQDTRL

Molecule | effect on P31-43-induced reduction of PM-associated CFTR | CHIP-mediated CFTR ubiquitilation | abundance of plasma membrane-associated SQSTM1/p62 | overall abundance of PM-associated CFTR (after 24 h of challenge)
CC(C)(C)c1cc(C(C)(C)C)c(NC(=O)c2c[nH]c3ccccc3c2=O)cc1O [VX-770, N-(2,4-di-tert-butyl-5-hydroxyphenyl)-4-oxo-1,4-dihydroquinoline-3-carboxamide] | counteracted |  |  | 
α-gliadin peptide LGQQQPFPPQQPY (SEQ ID 1), induces an enterocyte stress response (P31-43 sequence of alpha-gliadin) |  | promoted | increased the abundance | reduction of the overall abundance of PM-associated CFTR
